Data from a protein production outcome set (Wang et al. 2014).

Assay: label from the status in PepcDB records

Row | Sequence | protein production
1 | MDLELDEYYNKTLATENNTAATRNSDFPVWDDYKSSVDDLQYFLIGLYTFVSLLGFMGNLLILMALMKKRNQKTTVNFLIGNLAFSDILVVLFCSPFTLTSVLLDQWMFGKVMCHIMPFLQCVSVLVSTLILISIAIVRYHMIKHPISNNLTANHGYFLIATVWTLGFAICSPLPVFHSLVELQETFGSALLSSRYLCVESWPSDSYRIAFTISLLLVQYILPLVCLTVSHTSVCRSISCGLSNKENRLEENEMINLTLHPSKKSGPQVKLSGSHKWSYSFIKKHRRRYSKKTACVLPAPERPSQENHSRILPENFGSVRSQLSSSSKFIPGVPTCFEIKPEENSDVHELRVKRSVTRIKKRSRSVFYRLTILILVFAVSWMPLHLFHVVTDFNDNLISNRHFKLVYCICHLLGMMSCCLNPILYGFLNNGIKADLVSLIHCLHM | failed
2 | MGHHHHHHSHMAQPLACARGRSQRLVCDPKAASALPDLAPDVFVLRVRLEETGEMFRVANCRGDMTVRELKEELDLMVGIPFNLQRLQYLDEGVLMDDTTLKFHDVVPGGIISLCIWHHDGWTEL | failed
3 | MNTQEPAGLFTAVYEGDENTVVRLLRAGTAADARDEDGQTALYLAAVSNEPGIVRLLLAAGADPDRLSADADSPLCGAACGGHAEVVRALLAAGATADLEEEFGFRALTWAVQRGQVEILTELLAAGAHPDRPGPTGEAPLVAAARRGSPGCVRALLAHGAGARSPALDEARRWPALDVEAELRAGLEQMYGSGHEMVTHRIPEDGGITVEVQLRTGERTMAGNDQQTGHAAIITLLEAALGIATPVPELADRALRCGDPANDDWTEAVSVLVRRAGGETFTAATAWSRSPDPLRRALGTEILRKLGR | failed
4 | QPTAQQQLTKPAKITCANCKKPLQKGQTAYQRKGSAHLFCSTTCLSSFS | not failed
5 | MKPTLFVLAAGMGSRYGSLKQLDGIGPGGDTIMDYSVYDAIRAGFGRLVFVIRHSFEKEFREKILTKYEGRIPVELVFQELDRLPEGFSCPEGREKPWGTNHAVLMGRDAIREPFAVINADDFYGRNGFEVLARKLMTLEGKQGEYCMVGYRVGNTLSESGGVSRGVCQVDEKHLLTGVVERTGIERTDGTISFRDETGKICTLAEDAPVSMNMWGFTPDYFDYSEELFINFLNAHGQEPKSEFFIPFVVNDLIRSGRASVEVLDTTARWFGVTYSDDRPGVVAKLRELTEAGEYPTKLFLEHHHHHH | not failed
6 | MALTDNTRGALFMALAMASFTANDALTKSVTPYINTGQIMFVRGVMTVVLIYIAARHFGALRPLKTLLRPIIILRCLCEVTAAVLYLTALGLIEFSNASAILQSLPLVVTLGAALFLREPVGWRRWVAIIVGFIGVLVIIRPGPEGFTPGALLVVASLAVTAARDLLTRKMYADVPSLAITVITAFVNMAVGGLLIVPFGGWQPMNFTIVSHLAGSAILVLVGYQAIILSMRTGEISFVAPFRYTGLLWGFMIGVFFFNEKIDSYTIIGAMIVIGSGLYTFYRESLRKRSQMAKRAAATPTAATTVRPASVTKATVTEEAGE | failed
7 | MTDTNVLANSATDNQETTHFGFETVRKDEKVHKVAQVFHSVAAKYDIMNDLMSGGIHRLWKRFTIDCSGARPGQRILDLGGGTGDLTAKFSRIVGEKGHVILADINNSMLNVGRDKLRDSGVVGNVHYVQANAEELPFPDNYFDCITISFCLRNVTDKDKALRSMFRVLKPGGRLLVLEFSKPILEPLSKLYDTYSFHILPKMGQLIANDADSYRYLAESIRMHPDQETLKGMMEEAGFEQTTYYNLTGGIVALHRGYKFLEHHHHHH | not failed
8 | MLKQPIQAQQLIELLKVHYGIDIHTAQFIQGGADTNAFAYQADSESKSYFIKLKYGYHDEINLSIIRLLHDSGIKEIIFPIHTLEAKLFQQLKHFKIIAYPFIHAPNGFTQNLTGKQWKQLGKVLRQIHETSVPISIQQQLRKEIYSPKWREIVRSFYNQIEFDNSDDKLTAAFKSFFNQNSAAIHRLVDTSEKLSKKIQPDLDKYVLCHSDIHAGNVLVGNEESIYIIDWDEPMLAPKERDLMFIGGGVGNVWNKPHEIQYFYEGYGEINVDKTILSYYRHERIVEDIAVYGQDLLSRNQNNQSRLESFKYFKEMFDPNNVVEIAFATEQ | failed
9 | MSFLVLLLAVLIEKFSALRQRVQRDEPWLNAFARREASPRTAKRPWLTLALLILVPVLLLQLALTIIGSVAYGWLVLPIHLLVLIYSLGRVDLIAVLGPFRDACRRGDAQAAVHVAQRDMRVEADNGEQLLQGVQGYMLWQAFQSFFAVIFWYFVLGPVAALAYRLLALAAEHGKTPPLVERAGQLRHAFDWVPVRLLAASFALVGNFVAVSRVMLHELLNWNISAAQLITRVGCAASEVPPPVIGTQGVTSLDMLWELLVRAAIVWYAGFALWTLLR | failed
10 | MTNPGDGAAGAADRATLDHWRPRLAAIAAAAGQDDAAHDLGHLRRVWDAARAMLQAHPEADALVVLAASYLHDLVNLPKNHPERHLASRQAAAAARERLARAGFPAARLDAVAHAIEAHSFSAGIAPRTIEARIVQDADRLDALGPVGLVRMFHVGGSLGRALAHPSDPLAAQRALDDSRYTLDHIEAKLARLPHGMQTEAGRRLGEQRLAWLRDFRAAFSAQWGGGQLRLEHHHHHH | failed
11 | MEWLEQLLGKEWSLVPAGGVTGDAYIAQNGQQKLFLKRNTSPFLAVLSAEGIVPKLLWTRRVTNGDVISAQKWLPGQKLEPEDMKLERVAKLLKKIHSSKALVQMIQRLGKQPLHAQELLQQLQLVLRGDIRDEETIQQGLQYLMDSLKDIEYNEFVVCHCDVNHNNWLLSDEDELFLIDWDGAVIADPALDLGMLLYWYIPRQEWSEWLGYYDIEMDESLLKRMRWYVIAQTILSIQWHTTKKQQAEAEYWHQYLQQLLASE | failed
12 | MKQFVVISGKGGTGKTSVTAGLAAVGKDMVLADCDVDAADLHLVLAPEIRERHDFISGVVASIEPEACISCGLCTTHCRYGAIPQGYAPQVAPEHCEGCGVCAHVCPTGAARLSDRRCGEWYVSDTRFGPMVHAALGIGEENSGKLVSTVRTRARELAEARDASVVLIDGSPGVGCPVIASLAGADAALAVTEPTVSALHDLERVHALARHFDVRMAVLLNKADIHPGMAERIIGYCTTHDLPLVGRFGFSPLFVQAQLEGRTLPEQDSGEWRQRFNGVWNQLLALVLEHHHHHH | failed
13 | MSLKIIAPTDKTITPSGTWSIGARAGDFVFIGGMHGTDRVTGKMVDGDEARIRRMFDNMLAAAEAAGATKADAVRLTVFVTDVAKYRPVVNKVQKDIWGDGPYPPRTVLQVPALDQGDIAEIDGTFYAPAEGHHHHHH | not failed
14 | MKFESYDLAPGIKKSLAEAGFNRPTDIQFKSIPPILAGEDVLAIAQTGTGKTAAFVIPVLNTLINVKKSEHTDISCLVMAPTRELAVQISEVFKKIGAYTRLRTVCITGGVEQEAQIAAADYGIDILVATPGRMFDLIYQKHIKITRVKILVLDEADHMLDLGFIKDIQDVKKFLPARHQTLFFSATINEEIKKLAYSLVKNPIRIQIAPKDRVSKNITHSVAFIGMDDKRFFLERLLKEHPESKVIVFVRTQVRADRVQAAMERVGLKSVTMHGGKEQQARDAAMDAFKNGTVHVLIATDISARGIDIAGVEYVVNYDMPEVAENYVHRVGRTGRGVSKGFAISFCSMEEKPVLDEVEEFLGKEINVIEITGKDYDATLDLTEDVNDNWKALLKEADAETTKKYVPKKKKKK | failed
15 | MKVLCINPPDDLAALLGDGASFVSTMEPLGLLYVAAACREAGHEVAFIDAYAENLDEETLMRRIRDAAPQVVSFTSFTSNGGFLYTFGRRLRQEMPGVHVLLGNVHATIYARQYLASGCCDVVVRGEGEEVMPALLRVLEEGGDLATVPSIAYVRDGVVAETGGHAFVRDLSTLPLPARDLTRKELYSFARTPNFSLYRTPEGKTEKHLFSSRGCVNRCTFCVAHKNIGIRVRPIDSVIGEVDLLLREYDAGYIFFCDSLFTSRKKRIIELSDALRHHFPGLRWGCEAHVNTIDEDSVRAMAAGGCVDMNFGIESGVDRLLTAVNKRQTTAQIADAIRMVKRVSRINAIGLFILGLPGERPEDSDATIDFACSLPLDMAQFSILTPYPGSPIFEQLRAEGIIDDGVRPGDTLDPEVWRRYSSYASFSDNKPIWVTPEHSVEGLLAAQKRALRRFYLRPRPFLIQLRRLRPADLLDTARTFFKTFF | failed
16 | MDFFAIDPIGLPHTSLIFYLSSLLIALLLVFLTFQAYRLKSHRYFFLFLQLSQVIGLYTWYVLRGFPLDEALPLYHCRIAMLAIFFLPDRNKFKQLFMVLGIGGTFLALLSPDLYPFRLWHVANVSFYFGHYALLVNGLIYLLRFYDASQLRLLSVVRYLATVNFLLLLVSLATKGNYGFVMDIPVIHTRHLLLNFVIVTSGLTFMVKITEYFYLKFGEAQQLALAFSKEK | failed
